What was measured:
CICmin18 R1515H = CICmin18 R1515H (human, UniProt Q96RK0-2 188-280+=F+1457-1527, R1515H;internal_change); assay: MST
CICmin18 M1519D = CICmin18 M1519D (human, UniProt Q96RK0-2 188-280+=F+1457-1527, M1519D;internal_change); assay: MST
CICmin18 R1512H = CICmin18 R1512H (human, UniProt Q96RK0-2 188-280+=F+1457-1527, R1512H;internal_change); assay: MST
CICmin18 WT [1] = biological target: T1, CICmin18 WT (human, UniProt Q96RK0-2;Q96RK0-2); assay: MST
CICmin31 R215W = CICmin31 R215W (human, UniProt Q96RK0-2 188-294+1457-1527, R215W;internal_change); assay: MST
CICmin31 R1515H = CICmin31 R1515H (human, UniProt Q96RK0-2 188-294+1457-1527, R1515H;internal_change); assay: MST
CICmin31 M1519D = CICmin31 M1519D (human, UniProt Q96RK0-2 188-294+1457-1527, M1519D;internal_change); assay: MST
CICmin31 WT = CICmin31 WT (human, UniProt Q96RK0-2 188-294+1457-1527, internal_change); assay: MST
CICmin31 R201W = CICmin31 R201W (human, UniProt Q96RK0-2;Q96RK0-2, R201W); assay: MST
CICmin18 WT [2] = biological target: T1, CICmin18 WT; assay: X-ray crystallography 2.95 A
CICmin31 R201W (IVT) = CICmin31 R201W (IVT) (human, UniProt Q96RK0-2 188-294+1457-1527, R201W;internal_change); assay: EMSA
CICmin31 WT (IVT) = CICmin31 WT (IVT) (human, UniProt Q96RK0-2 188-294+1457-1527, internal_change); assay: EMSA
CICmin18 WT [3] = biological target: T1, CICmin18 WT; assay: EMSA

B1: ETV5 30-mer (MST) (dsDNA)
DNA 1: GGCGTTTTTTATGAATGAAAAACGTCCTCC
DNA 2: GGAGGACGTTTTTCATTCATAAAAAACGCC
B1 was tested, and the “apparent K (half saturation)” value (CICmin18 R1515H) was 16.7 nM, the “apparent K (half saturation)” value (CICmin18 M1519D) was 50.3 nM and the “apparent K (half saturation)” value (CICmin18 R1512H) was 14.6 nM. For the same binder, the “apparent K (half saturation)” value (CICmin18 WT [1]) was 15.5 nM, the “apparent K (half saturation)” value (CICmin31 R215W) was 151 nM and the “apparent K (half saturation)” value (CICmin31 R1515H) was 1430 nM. For the same binder, the “apparent K (half saturation)” value (CICmin31 M1519D) was 32.2 nM, the “apparent K (half saturation)” value (CICmin31 WT) was 226 nM and the “apparent K (half saturation)” value (CICmin31 R201W) was 171 nM.

B2: ETV5 18-mer (crystal) (dsDNA)
DNA 1: GGTTATGAATGAAAAACC
DNA 2: GGTTTTTCATTCATAACC
B2: binds (CICmin18 WT [2]).

B3: ETV5 30-mer (EMSA) (dsDNA)
DNA 1: GGCGTTTTTTATGAATGAAAAACGTCCTCC
DNA 2: GGAGGACGTTTTTCATTCATAAAAAACGCC
B3: binds (CICmin31 R201W (IVT)).

B4: random-site 30-mer (EMSA) (dsDNA)
DNA 1: GGCGTTTTTTAGTCGCTGCAAACGTCCTCC
DNA 2: GGAGGACGTTTGCAGCGACTAAAAAACGCC
B4: no binding (CICmin31 WT (IVT)); no binding (CICmin18 WT [3]).

Source: article PMC13152641
